Measurements: publication PMC4797271, “The quorum-sensing regulator ComA from Bacillus subtilis activates transcription using topologically distinct DNA motifs” (Nucleic Acids Research, 2015)

Target: T1, sigma-factor σ^A from Bacillus subtilis (Bacillus subtilis W168, UniProt P06224 1-371)
T1 construct: RNA polymerase sigma factor A (house-keeping sigma factor), Bacillus subtilis W168; gene amplified from the chromosome and cloned into pBAD18; also called house-keeping sigma-factor σ^A; σ^A-subunit of RNAP; source: E. coli, pBAD18, purified on Ni-NTA columns
T1 sequence (P06224 whole entry): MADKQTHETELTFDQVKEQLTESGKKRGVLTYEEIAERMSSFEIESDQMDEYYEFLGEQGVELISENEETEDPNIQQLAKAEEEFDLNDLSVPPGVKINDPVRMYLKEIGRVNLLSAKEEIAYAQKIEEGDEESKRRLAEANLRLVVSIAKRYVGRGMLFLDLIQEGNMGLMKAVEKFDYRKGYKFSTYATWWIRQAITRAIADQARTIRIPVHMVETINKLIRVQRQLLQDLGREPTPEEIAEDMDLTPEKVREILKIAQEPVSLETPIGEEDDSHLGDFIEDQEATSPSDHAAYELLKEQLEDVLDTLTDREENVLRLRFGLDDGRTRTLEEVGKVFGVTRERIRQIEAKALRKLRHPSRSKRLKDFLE
Assay: native gel or EMSA; super-shift of ComA-bound biotinylated rapA promoter DNA (ComA at full occupancy) on adding α or σ^A; 10 mM HEPES pH 7.6, 2 mM MgCl2, 0.1 mM EDTA, 200 mM KCl, 5 mM DTT, 10% glycerol; 20 min at room temperature; native 8% polyacrylamide gel, 0.5x TBE
Conditions: both partners purified

- binding result: binds
B1: ComA from Bacillus subtilis (His6-tagged ComA protein) (natural protein, Bacillus subtilis W168, UniProt P14204 1-214, looked up)
chain: MKKILVIDDHPAVMEGTKTILETDSNLSVDCLSPEPSEQFIKQHDFSSYDLILMDLNLGGEVNGMELSKQILQENPHCKIIVYTGYEVEDYFEEAIRAGLHGAISKTESKEKITQYIYHVLNGEILVDFAYFKQLMTQQKTKPAPSSQKEQDVLTPRECLILQEVEKGFTNQEIADALHLSKRSIEYSLTSIFNKLNVGSRTEAVLIAKSDGVL
notes: Transcription factor ComA, Bacillus subtilis W168; gene amplified from the chromosome and cloned into pBAD18; At full occupancy the rapA promoter probably carries more than one dimer; also called recombinant His6-tagged ComA; source: E. coli, pBAD18, purified on Ni-NTA columns; not shown: His6, N-terminal, kept
